Results from US20100178253A1 (published 2010).
Bridges are numbered along the chain shown (N, C = ends).

B1: Compound 5 ([Peptide 1]-DY-651 conjugate) (peptide)
peptide: Ac-AGSCYCSGPPRFECWCYETEGTGGGK-NH2
modifications: disulfide 6-14, 4-16; not fully specified (residue 26); also: DY-651 dye attached, site not given here
B2: Compound 1 ([Peptide 1]-DY-630 conjugate) (peptide)
peptide: Ac-AGSCYCSGPPRFECWCYETEGTGGGK-NH2
modifications: disulfide 6-14, 4-16; not fully specified (residue 26); also: DY-630 dye attached, site not given here
notes: Printed in three-letter code, turned into one-letter code here
B3: Compound 3 ([Peptide 1]-DY-633 conjugate) (peptide)
peptide: Ac-AGSCYCSGPPRFECWCYETEGTGGGK-NH2
modifications: disulfide 6-14, 4-16; not fully specified (residue 26); also: DY-633 dye attached, site not given here
B4: Compound 4 ([Peptide 1]-DY-650 conjugate) (peptide)
peptide: Ac-AGSCYCSGPPRFECWCYETEGTGGGK-NH2
modifications: disulfide 6-14, 4-16; not fully specified (residue 26); also: DY-650 dye attached, site not given here
B5: Compound 2 ([Peptide 1]-DY-631 conjugate) (peptide)
peptide: Ac-AGSCYCSGPPRFECWCYETEGTGGGK-NH2
modifications: disulfide 6-14, 4-16; not fully specified (residue 26); also: DY-631 dye attached, site not given here
B6: Compound 6 ([Peptide 1]-DY-652 conjugate) (peptide)
peptide: Ac-AGSCYCSGPPRFECWCYETEGTGGGK-NH2
modifications: disulfide 6-14, 4-16; not fully specified (residue 26); also: DY-652 dye attached, site not given here

Legend:
[1] = biological target: T1, human c-Met/Fc chimera (R&D Systems) (human, UniProt P08581 25-932); assay: fluorescence polarisation (anisotropy), 5 nM dye-labelled peptide, c-Met/Fc 0-250 nM, one-site fit
T1 construct: Bought from R&D Systems; Printed once as 'c-Met/Fe chimera' [sic]; also called human c-Met/Fe chimera; not shown: Fc part (and any linker or tag) of the bought chimera
Method: The fluorescence anisotropy measurements were performed in 384-well microplates in a volume of 10 μL in binding buffer (PBS, 0.01% Tween-20, pH 7.5) using a Tecan Safire fluorescence polarisation plate reader (Tecan, US) at Ex 635/Em 678 nm. The to concentration of dye-labelled peptide was held constant (5 nM) and the concentration of the human c-Met/Fe chimera (R&D Systems) was varied from 0-250 nM. Binding mixtures were equilibrated in the microplate for 10 min at 30° C. The observed change in anisotropy was fit to the equation

human serum albumin = biological target: T2, human serum albumin (human, UniProt P02768 25-609); assay: fluorescence polarisation, change of polarisation value with human serum albumin
T2 construct: also called HSA; plasma protein (PPB)
T2 sequence (P02768 25-609 limits assumed): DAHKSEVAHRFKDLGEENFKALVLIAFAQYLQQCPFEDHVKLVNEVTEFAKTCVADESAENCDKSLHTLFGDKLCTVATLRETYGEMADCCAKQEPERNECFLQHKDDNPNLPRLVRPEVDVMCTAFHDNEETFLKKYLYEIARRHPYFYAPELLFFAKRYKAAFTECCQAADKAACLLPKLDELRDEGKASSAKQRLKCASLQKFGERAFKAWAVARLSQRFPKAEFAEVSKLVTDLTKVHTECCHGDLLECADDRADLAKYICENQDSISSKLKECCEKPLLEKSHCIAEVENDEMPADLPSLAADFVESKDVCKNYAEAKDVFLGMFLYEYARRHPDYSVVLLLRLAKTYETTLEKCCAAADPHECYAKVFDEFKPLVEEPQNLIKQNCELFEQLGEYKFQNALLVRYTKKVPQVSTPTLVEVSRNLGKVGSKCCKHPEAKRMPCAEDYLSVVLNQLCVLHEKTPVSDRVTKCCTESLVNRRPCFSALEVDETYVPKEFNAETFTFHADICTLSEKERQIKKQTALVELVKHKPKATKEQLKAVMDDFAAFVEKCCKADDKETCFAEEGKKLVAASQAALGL

T1 sequence (P08581 25-932 limits assumed, change not shown): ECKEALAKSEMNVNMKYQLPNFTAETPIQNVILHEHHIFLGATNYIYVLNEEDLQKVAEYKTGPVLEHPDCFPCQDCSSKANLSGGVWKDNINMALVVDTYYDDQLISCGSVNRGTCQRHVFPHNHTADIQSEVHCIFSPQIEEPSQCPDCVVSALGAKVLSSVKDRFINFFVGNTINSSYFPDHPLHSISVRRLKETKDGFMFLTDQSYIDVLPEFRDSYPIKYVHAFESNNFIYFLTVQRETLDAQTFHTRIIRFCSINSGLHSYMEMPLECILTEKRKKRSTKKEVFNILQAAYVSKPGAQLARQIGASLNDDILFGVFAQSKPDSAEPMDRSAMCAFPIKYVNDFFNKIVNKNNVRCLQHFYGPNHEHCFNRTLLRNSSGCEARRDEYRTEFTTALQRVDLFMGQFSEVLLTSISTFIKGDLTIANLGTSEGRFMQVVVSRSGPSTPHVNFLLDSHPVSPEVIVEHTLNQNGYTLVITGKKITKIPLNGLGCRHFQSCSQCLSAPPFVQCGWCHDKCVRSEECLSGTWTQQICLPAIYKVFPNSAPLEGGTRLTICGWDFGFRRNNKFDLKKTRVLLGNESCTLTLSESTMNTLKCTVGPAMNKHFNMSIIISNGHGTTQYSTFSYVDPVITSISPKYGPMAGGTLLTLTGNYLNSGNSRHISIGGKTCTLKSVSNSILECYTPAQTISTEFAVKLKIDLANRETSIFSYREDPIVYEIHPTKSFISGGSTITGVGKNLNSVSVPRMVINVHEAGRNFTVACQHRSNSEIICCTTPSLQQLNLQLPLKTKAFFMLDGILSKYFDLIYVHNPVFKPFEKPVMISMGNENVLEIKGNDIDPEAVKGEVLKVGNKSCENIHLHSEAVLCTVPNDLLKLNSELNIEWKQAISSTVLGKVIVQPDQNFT

Row | Binder | Kd [1] [nM] | PPB (% change in polarisation value) (human serum albumin) [%]
1 | B1 | 2.2 | 49
2 | B2 | 2.2 | 36
3 | B3 | 0.5 | 27
4 | B4 | 3.2 | 55
5 | B5 | 0.5 | 33
6 | B6 | 0.9 | 46
